According to patent publication US20250026791A1, “CYCLIC PEPTIDE CYCLIZED IN AROMATIC NUCLEOPHILIC SUBSTITUTION REACTION, AND PEPTIDE LIBRARY, PRODUCTION METHOD, AND SCREENING METHOD FOR SAME” (UNIVERSITY OF YAMANASHI, priority 2021, published 2025):
*1 amine or outer side, *2 acyl side, *3 side chain or, on linkers, in order; H or OH if unused. Where no end group is shown, it is not given here. The star is where a group is joined. Lys(Biotin) = O=C(CCCC[C@@H]1SC[C@@H]2NC(=O)N[C@@H]21)NCCCC[C@H](N[*:1])C(=O)[*:2]; F5Ph = Fc1c(F)c(F)c(*)c(F)c1F; FNO2Ph = not defined here; Ahx = NCCCCCC(=O)O

What was measured:
Assay type in all cases: binding
PCSK9 [1] = target: T1, PCSK9 (Homo sapiens, UniProt Q8NBP7); test: HRP-labeled peptide pulled down with PCSK9-immobilized beads, chemiluminescence detection; settings: without presentation by cDNA-mRNA dimer, FIGS. 16, 17, 25
T1 sequence (Q8NBP7 153-692): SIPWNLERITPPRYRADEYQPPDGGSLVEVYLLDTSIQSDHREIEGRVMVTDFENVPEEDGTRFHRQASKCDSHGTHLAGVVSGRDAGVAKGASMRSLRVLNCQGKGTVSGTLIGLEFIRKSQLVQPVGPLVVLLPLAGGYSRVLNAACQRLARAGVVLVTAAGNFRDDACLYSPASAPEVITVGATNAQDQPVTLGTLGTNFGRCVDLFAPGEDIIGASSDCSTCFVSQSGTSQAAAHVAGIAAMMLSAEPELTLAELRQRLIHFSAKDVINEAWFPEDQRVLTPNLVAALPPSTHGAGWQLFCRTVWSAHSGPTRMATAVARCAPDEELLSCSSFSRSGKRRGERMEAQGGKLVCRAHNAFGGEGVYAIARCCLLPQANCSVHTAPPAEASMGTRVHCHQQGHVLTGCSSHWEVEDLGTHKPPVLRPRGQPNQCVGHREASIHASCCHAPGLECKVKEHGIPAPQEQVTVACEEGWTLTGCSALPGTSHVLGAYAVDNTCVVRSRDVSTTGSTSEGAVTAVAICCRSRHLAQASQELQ
Description: Peptide 1-1 and Peptide 2-1 were labeled via horseradish peroxidase (HRP)-labeled streptavidin. Each peptide of HRP-labeled Peptide 1-1 and Peptide 2-1 was pulled down with PCSK9-immobilized beads. HRP substrate was added to PCSK9-immobilized beads and chemiluminescence was detected using LuminoGraph III (ATTO).
The PCSK9 binding activity of HRP-labeled Peptide 1-1 (monomer) and the dimer of Peptide 1-1 (Peptide A) were analyzed by PCSK9 pull-down and chemiluminescence detection.
Peptide C was labeled via HRP-labeled streptavidin. Based on the same method as in Experimental Example 7, the PCSK9 binding activity of HRP-labeled Peptide C was analyzed by PCSK9 pulldown and chemiluminescence detection.

His-tagged PCSK9 = His-tagged PCSK9 (Homo sapiens, UniProt Q8NBP7); test: His-tagged PCSK9 (HRP-conjugated anti-His-tag antibody) pulled down with peptide-immobilized streptavidin beads, chemiluminescence detection; settings: peptide on streptavidin beads pulls down His-tagged PCSK9; FIGS. 18 and 19
Chain of His-tagged PCSK9 (Q8NBP7 153-692): as above
Description: Each of Peptide 1-1 and peptide 2-1 was conjugated to streptavidin beads. His-tagged PCSK9 was labeled via HRP-conjugated anti-His-tagged antibody. The complex of PCSK9 and HRP was pulled down with Peptide 1-1 or Peptide 2-1 immobilized beads. HRP substrates were added to the peptide-immobilized beads and chemiluminescence was detected using LuminoGraph III (ATTO).

PCSK9 [2] = target: T1, PCSK9; test: Collection rate of cDNA/mRNA presenting cyclized peptide against PCSK9-immobilized beads; settings: for collection rate against PCSK9, Peptide 2 (WT) versus Peptide 3 (C17S): FIG. 13, C17 replaced with serine
Description: Site-specific biotinylated human PCSK9 was immobilized on streptavidin-modified magnetic beads. Fc fusion protein of human PCSK9 was immobilized on protein A-modified magnetic beads. Immobilization of PCSK9 was confirmed by sodium dodecyl sulfate polyacrylamide gel electrophoresis and staining with Coomassie brilliant blue.
Each of the mRNA-presenting FNO2Ph and F5Ph cyclized peptide libraries was incubated with PCSK9-immobilized streptavidin-modified beads as positive selection. After removal of the supernatant, the beads were washed with HBS-T. cDNA encoding the peptide binding to the PCSK9-immobilized beads was PCR amplified with Taq DNA polymerase. The amplified PCR product was used for the next round of SELEX.
After the positive selection, cDNA encoding peptides that bind to PCSK9 immobilized beads was amplified by PCR and quantified by qPCR using SYBR green.
Each collection rate of the cDNA/mRNA presenting FNO2Ph cyclized peptide with the amino acid sequence of SEQ ID: 4 (hereafter referred to as Peptide 1) and the cDNA/mRNA presenting F5Ph cyclized peptide with the amino acid sequence of SEQ ID: 14 (hereafter referred to as Peptide 2) against PCSK9 was determined. […] beads were used as negative controls.
Peptide 3 (SEQ ID: 27) was prepared by replacing C17 in Peptide 2 (F5Ph is the first amino acid) with serine. Each collection rate of Peptide 2 (WT) and Peptide 3 (C17S) against PCSK9 was measured (FIG. 13).

human IL-5 = test: Collection rate of cDNA/mRNA presenting cyclized peptide against IL-5; settings: compared with IL-5 non-immobilized beads (FIGS. 29 and 30)
Chain of human IL-5 (P05113 20-134): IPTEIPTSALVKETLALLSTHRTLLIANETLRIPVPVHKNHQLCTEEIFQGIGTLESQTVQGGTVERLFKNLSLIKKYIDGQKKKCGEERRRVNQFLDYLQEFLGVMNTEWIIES
Description: We checked whether the screening in Experimental Example 2 is applicable to compounds other than human PCSK9. Screening was performed for peptides that bind to human IL-5 as compounds other than human PCSK9.
Each collection rate of cDNA/mRNA presenting FNO2Ph cyclized peptide with the amino acid sequence of SEQ ID: 66 (hereafter referred to as Peptide 4) and cDNA/mRNA presenting F5Ph cyclized peptide with the amino acid sequence of SEQ ID: 69 (hereafter referred to as Peptide 5) against IL-5 was determined. IL-5 non-immobilized beads were used as a negative control. […] From the above, it was possible to screen for human IL-5 which is a compound other than human PCSK9.

| Substance | PCSK9 binding activity (PCSK9 [1]) | collection rate against PCSK9, Peptide 2 (WT) versus Peptide 3 (C17S) (PCSK9 [2]) | collection rate against IL-5 (human IL-5) | further results |
| --- | --- | --- | --- | --- |
| Peptide 2-1: chemically synthesized FNO2Ph cyclized peptide (as printed), SEQ ID: 14, C-terminal spacer of three Ahx and biotinylated lysine (RGHCWLYVYFPVRSLC-{Ahx-Ahx-Ahx-K(biotin)-NH2}; thioether (positions not given here); not fully specified (N-terminus, bridges); also: FNO2Ph cyclization, places not given here) | have binding activity to PCSK9 | – | – | PCSK9 binding activity (His-tagged PCSK9): have binding activity to PCSK9 |
| Peptide 2: F5Ph cyclized peptide with amino acid sequence of SEQ ID: 14 (RGHCWLYVYFPVRSLC), cDNA/mRNA presented (F5Ph-RGHCWLYVYFPVRSLC; thioether (positions not given here); not fully specified (bridges)) | – | C17 in Peptide 2 was found to be critical for Peptide 2 binding to PCSK9 | – | collection rate against PCSK9 (PCSK9 [2]; cDNA/mRNA presenting peptide, compared with negative control beads (FIGS. 10 and 11)): higher than that of the negative control |
| Peptide 3: SEQ ID: 27; C17 in Peptide 2 (F5Ph is the first amino acid) replaced with serine (F5Ph-RGHCWLYVYFPVRSLS; thioether (positions not given here); not fully specified (bridges)) | – | C17 in Peptide 2 was found to be critical for Peptide 2 binding to PCSK9 | – | – |
| Peptide 4: FNO2Ph cyclized peptide with amino acid sequence of SEQ ID: 66 (LLLMWCAVLVVLRWRRR), cDNA/mRNA presented (bridge (positions not given here) via FNO2Ph; reading uncertain; also: FNO2Ph cyclization, places not given here) | – | – | higher than those of the negative control | – |
| Peptide 5: F5Ph cyclized peptide with amino acid sequence of SEQ ID: 69 (HSPFTFQHC), cDNA/mRNA presented (bridge (positions not given here) via F5Ph; also: F5Ph cyclization, places not given here) | – | – | higher than those of the negative control | – |
| Peptide C: FNO2Ph cyclized peptide, SEQ ID: 35: two methionines of SEQ ID: 28 replaced with isoleucine; three Ahx spacer, biotinylated lysine (RWRFYSGIRNREIDC-{Ahx-Ahx-Ahx-Lys(Biotin)-NH2}; not fully specified (N-terminus, bridges); also: FNO2Ph cyclization, places not given here) | have binding activity for PCSK9 | – | – | – |
